Earlier results, collected in publication PMC5419744.

Molecular target: DNA polymerase III subunit tau (Escherichia coli) (UniProt P06710)
UniProt P06710, sequence (P06710 2-643): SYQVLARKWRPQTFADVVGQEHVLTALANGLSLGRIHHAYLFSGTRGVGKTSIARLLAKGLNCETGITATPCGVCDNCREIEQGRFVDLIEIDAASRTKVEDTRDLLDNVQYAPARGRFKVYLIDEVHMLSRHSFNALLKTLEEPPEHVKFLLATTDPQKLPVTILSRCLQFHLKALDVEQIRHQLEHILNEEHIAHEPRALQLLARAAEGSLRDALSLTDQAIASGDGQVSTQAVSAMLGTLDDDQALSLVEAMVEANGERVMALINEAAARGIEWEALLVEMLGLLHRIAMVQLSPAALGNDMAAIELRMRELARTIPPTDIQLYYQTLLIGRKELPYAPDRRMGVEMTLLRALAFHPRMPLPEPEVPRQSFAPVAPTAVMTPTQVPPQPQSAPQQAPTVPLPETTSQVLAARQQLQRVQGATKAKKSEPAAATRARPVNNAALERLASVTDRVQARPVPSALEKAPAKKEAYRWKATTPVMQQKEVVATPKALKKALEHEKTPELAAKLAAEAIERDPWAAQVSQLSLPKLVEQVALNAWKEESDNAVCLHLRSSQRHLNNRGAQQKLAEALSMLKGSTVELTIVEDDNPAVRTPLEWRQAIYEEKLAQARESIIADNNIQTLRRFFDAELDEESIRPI

With “DNA polymerase III subunit alpha (from UniProt P10443)” as the substance, how does the Kd read?
The Kd was 0.3 nM.
